Consider 6 molecules from PMC11341690.

Series [1] has as its target T1, PglX (PglX-SAM) (Salmonella enterica, UniProt A0A6C7IK61).
T1 construct: gene STMMW_44401
As to conditions: PglX incubated with 1 mM SAM before crystallisation; methyltransferase pocket between GSG and NPPY motifs; no DNA.

Series [2] concerns the target T2, PglX-SAM:Ocr complex (Salmonella enterica, UniProt A0A6C7IK61).
T2 construct: gene STMMW_44401
The note with it: PglX incubated with 1 mM SAM, then Ocr, before crystallisation; same methyltransferase pocket.

Series [3] deals with PglX (Salmonella enterica serovar Typhimurium ST313 strain D23580 BREX methyltransferase), wild type (Salmonella enterica serovar Typhimurium ST313 strain D23580). In words: mass photometry; PglX proteins with equimolar Ocr; TwoMP (Refeyn); 1 uM for 1 h on ice in 10 mM Tris pH 7.9, 25 mM NaCl, 0.5 uM SAM, 0.5 uM MgCl2, then diluted to 5 nM.
Series [4] deals with T3, PglX WT (Salmonella D23580 (S. Typhimurium), UniProt A0A6C7IK61 1-1225).
T3 sequence: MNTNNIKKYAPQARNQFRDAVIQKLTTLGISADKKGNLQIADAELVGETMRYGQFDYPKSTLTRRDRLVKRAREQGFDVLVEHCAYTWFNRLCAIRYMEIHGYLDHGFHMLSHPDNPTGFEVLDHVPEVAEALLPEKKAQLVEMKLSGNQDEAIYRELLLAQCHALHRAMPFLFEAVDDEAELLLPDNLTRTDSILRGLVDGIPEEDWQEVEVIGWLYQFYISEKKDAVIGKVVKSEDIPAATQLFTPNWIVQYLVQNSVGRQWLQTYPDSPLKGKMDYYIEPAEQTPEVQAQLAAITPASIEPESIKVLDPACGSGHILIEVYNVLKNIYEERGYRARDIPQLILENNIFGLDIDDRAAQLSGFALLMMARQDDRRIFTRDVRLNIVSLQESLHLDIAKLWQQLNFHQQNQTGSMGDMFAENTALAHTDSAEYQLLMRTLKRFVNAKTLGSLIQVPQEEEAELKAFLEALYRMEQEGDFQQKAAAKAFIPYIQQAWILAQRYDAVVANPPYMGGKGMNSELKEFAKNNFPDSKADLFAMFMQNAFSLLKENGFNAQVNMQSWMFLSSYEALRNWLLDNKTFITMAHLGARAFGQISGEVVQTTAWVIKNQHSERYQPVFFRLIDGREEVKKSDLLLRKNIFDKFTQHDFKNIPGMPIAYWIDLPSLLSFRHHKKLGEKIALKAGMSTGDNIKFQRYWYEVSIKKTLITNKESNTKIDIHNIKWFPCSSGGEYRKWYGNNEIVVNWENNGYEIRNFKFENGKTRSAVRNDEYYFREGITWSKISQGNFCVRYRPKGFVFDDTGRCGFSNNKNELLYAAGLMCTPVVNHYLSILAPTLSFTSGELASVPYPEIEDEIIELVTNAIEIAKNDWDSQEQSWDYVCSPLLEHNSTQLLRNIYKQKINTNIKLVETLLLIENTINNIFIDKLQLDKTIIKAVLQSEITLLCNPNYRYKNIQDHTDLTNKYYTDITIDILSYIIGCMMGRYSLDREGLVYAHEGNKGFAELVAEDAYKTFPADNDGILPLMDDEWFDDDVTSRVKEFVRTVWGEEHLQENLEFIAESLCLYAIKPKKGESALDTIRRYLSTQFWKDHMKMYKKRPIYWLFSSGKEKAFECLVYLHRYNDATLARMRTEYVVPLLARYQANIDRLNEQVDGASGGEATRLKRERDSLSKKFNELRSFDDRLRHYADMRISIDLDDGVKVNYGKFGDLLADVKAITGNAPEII
In words: mass photometry; 1:1 and 2:1 complexes; mass photometry (Refeyn); buffer, salt, pH and temperature not given in the material. The note with it: protein: recombinant; tags: untagged (His/SUMO tag removed by hSENP2); blunt.

The target of series [5] is T4, PglX NTD (Salmonella D23580 (S. Typhimurium), UniProt A0A6C7IK61 1-661).
T4 sequence: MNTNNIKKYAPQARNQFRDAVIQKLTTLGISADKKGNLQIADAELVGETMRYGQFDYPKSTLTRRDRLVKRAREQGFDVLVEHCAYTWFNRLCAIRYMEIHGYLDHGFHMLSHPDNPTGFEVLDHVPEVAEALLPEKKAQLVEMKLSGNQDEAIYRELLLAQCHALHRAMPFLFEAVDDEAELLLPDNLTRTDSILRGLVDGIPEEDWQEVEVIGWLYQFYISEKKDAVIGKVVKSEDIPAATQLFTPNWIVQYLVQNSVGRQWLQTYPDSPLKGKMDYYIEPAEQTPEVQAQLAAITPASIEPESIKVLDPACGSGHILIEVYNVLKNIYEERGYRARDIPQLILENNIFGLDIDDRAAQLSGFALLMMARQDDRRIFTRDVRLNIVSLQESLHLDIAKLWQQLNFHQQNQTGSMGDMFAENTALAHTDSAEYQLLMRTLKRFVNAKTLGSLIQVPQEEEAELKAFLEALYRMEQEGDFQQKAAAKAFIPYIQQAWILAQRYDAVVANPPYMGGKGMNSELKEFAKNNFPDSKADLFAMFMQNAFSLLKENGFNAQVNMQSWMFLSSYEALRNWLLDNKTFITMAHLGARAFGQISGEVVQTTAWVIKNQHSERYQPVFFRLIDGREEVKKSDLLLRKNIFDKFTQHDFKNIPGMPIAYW
Kind of series: mass photometry; NTD peak may include free DNA; mass photometry (Refeyn); buffer, salt, pH and temperature not given in the material. The note with it: protein: recombinant; tags: untagged (His/SUMO tag removed by hSENP2); blunt.

Series [6] deals with T3, PglX WT. Kind of series: mass photometry; 1:1, 2:1 and 3:1 complexes; mass photometry (Refeyn); buffer, salt, pH and temperature not given in the material. As to conditions: protein: recombinant; tags: untagged (His/SUMO tag removed by hSENP2); blunt.
Series [7] concerns the target T3, PglX WT. Kind of series: mass photometry; 1:1, 2:1 and 3:1 complexes; non-specific; mass photometry (Refeyn); buffer, salt, pH and temperature not given in the material. As to conditions: protein: recombinant; tags: untagged (His/SUMO tag removed by hSENP2); blunt.

Changes are numbered by the printed parent chain.

On to `C[S+](CC[C@H](N)C(=O)O)C[C@H]1O[C@@H](n2cnc3c(N)ncnc32)[C@H](O)[C@@H]1O` (stereo partly drawn) [SAM, S-adenosyl-L-methionine], for which the “X-ray crystal structure, 3.5 A” value was “crystallographic structure of Salmonella PglX bound to S-adenosyl-L-methionine (SAM), a co-factor for methylation” in series [1] and “visible in the PglX-SAM:Ocr structure is a bound SAM molecule” in series [2].

In series [3], “Ocr from phage T7 (DNA mimic, anti-restriction and anti-BREX protein) (from UniProt P03775 1-117) (natural protein)” registered a stoichiometry N (Ocr per PglX (1:2 PglX WT:Ocr)) of 2 and a stoichiometry N (Ocr per PglX (2:2 PglX WT:Ocr)) of 1.

B1: DNA 1 (TRB2180/TRB2181) (dsDNA)
DNA 1: GGTATCCGTTCGTCATAGGCTCAAAGCGTCTCCTGAGTCTCGGATCAGTACGAACTACCGGAACCAACACGACTGATCGTCTTCGGTGACCATTGCAACACTAGTATCTCGAGTGCCGTG
DNA 2: CACGGCACTCGAGATACTAGTGTTGCAATGGTCACCGAAGACGATCAGTCGTGTTGGTTCCGGTAGTTCGTACTGATCCGAGACTCAGGAGACGCTTTGAGCCTATGACGAACGGATACC
On to B1, for which the binding result is on record as “binds” in series [4] and “no binding” in series [5].

B2: DNA 3 (TRB2184/TRB2185) (dsDNA)
DNA 1: B1 DNA 1 with T74A, G75A, A76T, T77A
DNA 2: B1 DNA 2 with A44T, T45A, C46T, A47T
For B2, the binding result in series [6] is listed as “binds”; in series [5], “no binding”.

B3: DNA 4 (TRB2186/TRB2187) (dsDNA)
DNA 1: B1 DNA 1 with G43T, A44G, C46A, A47C, G48C, T74A, G75A, A76T, T77A
DNA 2: B1 DNA 2 with A44T, T45A, C46T, A47T, C73G, T74G, G75T, T77C, C78A
As to B3, the binding result in series [5] is “no binding”; in series [7] it was “binds”.

B4: DNA 2 (TRB2182/TRB2183) (dsDNA)
DNA 1: B1 DNA 1 with C73G, T74A, G75T, A76C, T77A, C78G
DNA 2: B1 DNA 2 with G43C, A44T, T45G, C46A, A47T, G48C
With B4, the binding result in series [4] is “binds”; in series [5], “no binding”.
